91 sequences from the supplement of paper PMC9112550, “Optimization of the antimicrobial peptide Bac7 by deep mutational scanning” (BMC Biology, 2022) can be followed below.

In this data set the test system is Escherichia coli TOP10. Nature of the data set: shrunken log2 fold change of peptide-encoding DNA abundance (4.5 h post-induction vs induction); higher = less antimicrobial activity (less host growth inhibition). Conditions: time post-induction: 4.5 h; library: site-saturation at positions 5, 18, 19, 20.
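Note: peptides expressed intracellularly from a pBAD plasmid library in pooled LB shake-flask culture, induced with 0.3% L-arabinose, DNA abundance read by NGS, three biological replicates, DESeq2 with apeglm shrinkage.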

In the case of RRIRARPPRLPRPRPRPARFPRP, the “shrunken log2 fold change” value came to 1.03.

On to RRIRKRPPRLPRPRPRPSGKPRP, for which the “shrunken log2 fold change” value is -0.424.

Regarding RRIRMRPPRLPRPRPRPATLPRP, the “shrunken log2 fold change” value was 0.132.

Take RRIRKRPPRLPRPRPRPEMHPRP: the “shrunken log2 fold change” value was found to be 0.0496.

With RRIRIRPPRLPRPRPRPTRRPRP, the “shrunken log2 fold change” value was 0.298.

On to RRIRNRPPRLPRPRPRPGPWPRP, for which the “shrunken log2 fold change” value is 0.0802.

For the sequence RRIRNRPPRLPRPRPRPAGTPRP, the “shrunken log2 fold change” value was determined as 0.0756.

Take RRIRKRPPRLPRPRPRPLQFPRP: the “shrunken log2 fold change” value was -0.076.

Take RRIRCRPPRLPRPRPRPVPNPRP: the “shrunken log2 fold change” value was -0.26.

As to RRIRYRPPRLPRPRPRPSPWPRP, the “shrunken log2 fold change” value was -0.513.

With RRIRWRPPRLPRPRPRPVWCPRP, the “shrunken log2 fold change” value was determined as 0.0155.

For RRIRYRPPRLPRPRPRPWTWPRP, the “shrunken log2 fold change” value is -0.106.

Turning to RRIRYRPPRLPRPRPRPRVGPRP, the “shrunken log2 fold change” value stood at 0.161.

Consider RRIRWRPPRLPRPRPRPYNEPRP, for which the “shrunken log2 fold change” value was -0.13.

As to RRIRRRPPRLPRPRPRPWYPPRP, the “shrunken log2 fold change” value is -0.206.

For the sequence RRIRWRPPRLPRPRPRPFANPRP, the “shrunken log2 fold change” value is -0.0747.

In the case of RRIRMRPPRLPRPRPRPRGSPRP, the “shrunken log2 fold change” value worked out at 0.631.

Regarding RRIRQRPPRLPRPRPRPGQEPRP, the “shrunken log2 fold change” value is -0.018.

On to RRIRVRPPRLPRPRPRPSSAPRP, for which the “shrunken log2 fold change” value stood at 0.0552.

Regarding RRIRMRPPRLPRPRPRPDAYPRP, the “shrunken log2 fold change” value is 0.414.

Consider RRIRTRPPRLPRPRPRPCQPPRP, for which the “shrunken log2 fold change” value was -0.387.

For the sequence RRIRCRPPRLPRPRPRPLRLPRP, the “shrunken log2 fold change” value turned out to be 0.0282.

RRIRIRPPRLPRPRPRPFWEPRP: the “shrunken log2 fold change” value turned out to be 0.366.

On to RRIRYRPPRLPRPRPRPDWIPRP, for which the “shrunken log2 fold change” value is -0.589.

Regarding RRIRGRPPRLPRPRPRPGNNPRP, the “shrunken log2 fold change” value is -0.0385.

In the case of RRIRNRPPRLPRPRPRPNNCPRP, the “shrunken log2 fold change” value was -0.0864.

RRIRPRPPRLPRPRPRPGDNPRP: the “shrunken log2 fold change” value is -0.00764.

Consider RRIRDRPPRLPRPRPRPKMYPRP, for which the “shrunken log2 fold change” value was 0.0269.

RRIRLRPPRLPRPRPRPAAPPRP: the “shrunken log2 fold change” value came to 0.545.

On to RRIRVRPPRLPRPRPRPRNSPRP, for which the “shrunken log2 fold change” value is 0.1.

As to RRIRKRPPRLPRPRPRPIRFPRP, the “shrunken log2 fold change” value is -0.186.

In the case of RRIRSRPPRLPRPRPRPWVAPRP, the “shrunken log2 fold change” value came to 0.0561.

As for RRIRPRPPRLPRPRPRPACFPRP, the “shrunken log2 fold change” value is 0.45.

Turning to RRIRARPPRLPRPRPRPEYVPRP, the “shrunken log2 fold change” value was 0.0744.

Take RRIRPRPPRLPRPRPRPKLGPRP: the “shrunken log2 fold change” value was 0.551.

Regarding RRIRLRPPRLPRPRPRPSFRPRP, the “shrunken log2 fold change” value is -0.358.

RRIRPRPPRLPRPRPRPSNQPRP: the “shrunken log2 fold change” value was -0.45.

As to RRIRERPPRLPRPRPRPRMEPRP, the “shrunken log2 fold change” value is -0.00684.

Regarding RRIRGRPPRLPRPRPRPITDPRP, the “shrunken log2 fold change” value is 0.0223.

On to RRIRERPPRLPRPRPRPDHYPRP, for which the “shrunken log2 fold change” value was -0.738.

In the case of RRIRARPPRLPRPRPRPGARPRP, the “shrunken log2 fold change” value was determined as 0.59.

In the case of RRIRCRPPRLPRPRPRPRLQPRP, the “shrunken log2 fold change” value was 0.425.

For the sequence RRIRNRPPRLPRPRPRPPAGPRP, the “shrunken log2 fold change” value turned out to be 0.637.

Take RRIRMRPPRLPRPRPRPNELPRP: the “shrunken log2 fold change” value was determined as 0.0804.

As to RRIRQRPPRLPRPRPRPPNTPRP, the “shrunken log2 fold change” value was -0.0954.

In the case of RRIRARPPRLPRPRPRPPKAPRP, the “shrunken log2 fold change” value was determined as 0.685.

On to RRIRPRPPRLPRPRPRPPFQPRP, for which the “shrunken log2 fold change” value came to 0.119.

As to RRIRNRPPRLPRPRPRPPFEPRP, the “shrunken log2 fold change” value was 0.128.

For RRIRFRPPRLPRPRPRPCSRPRP, the “shrunken log2 fold change” value is -0.22.

With RRIRRRPPRLPRPRPRPKYFPRP, the “shrunken log2 fold change” value came out at 0.162.

For RRIRCRPPRLPRPRPRPQAAPRP, the “shrunken log2 fold change” value worked out at 0.225.

For RRIRSRPPRLPRPRPRPTWYPRP, the “shrunken log2 fold change” value was -0.123.

With RRIRNRPPRLPRPRPRPAIDPRP, the “shrunken log2 fold change” value was -0.0478.

Regarding RRIRMRPPRLPRPRPRPIMCPRP, the “shrunken log2 fold change” value is -0.19.

On to RRIRFRPPRLPRPRPRPLLPPRP, for which the “shrunken log2 fold change” value was -0.142.

Take RRIRNRPPRLPRPRPRPEQDPRP: the “shrunken log2 fold change” value is 0.0235.

As to RRIRSRPPRLPRPRPRPCSFPRP, the “shrunken log2 fold change” value is -0.825.

As to RRIRHRPPRLPRPRPRPVLWPRP, the “shrunken log2 fold change” value amounted to 0.234.

Consider RRIRMRPPRLPRPRPRPMNPPRP, for which the “shrunken log2 fold change” value worked out at 0.12.

In the case of RRIRGRPPRLPRPRPRPFNCPRP, the “shrunken log2 fold change” value was -0.116.

Consider RRIRQRPPRLPRPRPRPGIIPRP, for which the “shrunken log2 fold change” value stood at 0.0277.

Take RRIRHRPPRLPRPRPRPSPCPRP: the “shrunken log2 fold change” value is -0.225.

For the sequence RRIRVRPPRLPRPRPRPDWHPRP, the “shrunken log2 fold change” value is -0.0256.

In the case of RRIRGRPPRLPRPRPRPCAMPRP, the “shrunken log2 fold change” value is -0.102.

Consider RRIRARPPRLPRPRPRPFVTPRP, for which the “shrunken log2 fold change” value is -0.166.

Turning to RRIRYRPPRLPRPRPRPDALPRP, the “shrunken log2 fold change” value was -0.212.

RRIRVRPPRLPRPRPRPQIMPRP: the “shrunken log2 fold change” value was -0.745.

In the case of RRIRYRPPRLPRPRPRPKCPPRP, the “shrunken log2 fold change” value amounted to 0.137.

In the case of RRIRKRPPRLPRPRPRPHERPRP, the “shrunken log2 fold change” value came out at 0.231.

As for RRIRMRPPRLPRPRPRPLAYPRP, the “shrunken log2 fold change” value is -0.093.

For RRIRKRPPRLPRPRPRPFDHPRP, the “shrunken log2 fold change” value was determined as 0.119.

As to RRIRHRPPRLPRPRPRPERAPRP, the “shrunken log2 fold change” value amounted to 0.305.

As to RRIRFRPPRLPRPRPRPLGWPRP, the “shrunken log2 fold change” value was determined as 0.494.

As for RRIRYRPPRLPRPRPRPTQIPRP, the “shrunken log2 fold change” value is -0.292.

With RRIRSRPPRLPRPRPRPVCGPRP, the “shrunken log2 fold change” value was found to be 0.548.

On to RRIRKRPPRLPRPRPRPMSRPRP, for which the “shrunken log2 fold change” value stood at 0.0843.

For the sequence RRIRGRPPRLPRPRPRPPACPRP, the “shrunken log2 fold change” value was determined as 1.36.

Regarding RRIRLRPPRLPRPRPRPEPHPRP, the “shrunken log2 fold change” value stood at 0.324.

For the sequence RRIRHRPPRLPRPRPRPPLRPRP, the “shrunken log2 fold change” value amounted to 0.287.

As to RRIRFRPPRLPRPRPRPIAVPRP, the “shrunken log2 fold change” value is -0.116.

Turning to RRIRGRPPRLPRPRPRPQPKPRP, the “shrunken log2 fold change” value turned out to be 0.884.

Take RRIRERPPRLPRPRPRPIMIPRP: the “shrunken log2 fold change” value was -0.246.

Regarding RRIRARPPRLPRPRPRPNEQPRP, the “shrunken log2 fold change” value was found to be 0.234.

As to RRIRPRPPRLPRPRPRPSIGPRP, the “shrunken log2 fold change” value turned out to be 0.166.

As for RRIRPRPPRLPRPRPRPLASPRP, the “shrunken log2 fold change” value came out at 0.104.

In the case of RRIRQRPPRLPRPRPRPMPIPRP, the “shrunken log2 fold change” value stood at 0.0245.

Consider RRIRQRPPRLPRPRPRPAAEPRP, for which the “shrunken log2 fold change” value worked out at 0.19.

Take RRIRPRPPRLPRPRPRPSNDPRP: the “shrunken log2 fold change” value was -0.288.

With RRIRSRPPRLPRPRPRPSGYPRP, the “shrunken log2 fold change” value is -0.443.

As to RRIRCRPPRLPRPRPRPGQCPRP, the “shrunken log2 fold change” value was -0.11.

For the sequence RRIRKRPPRLPRPRPRPEVYPRP, the “shrunken log2 fold change” value was -0.0138.
